From the Immune Epitope Database (IEDB)
Blank lines part the entries; values can stand above or below the sequence they belong to.

Experiments:
[1] = molecular target: HLA-B*08:01; experiment: IEDB peptide-MHC binding, purified MHC/competitive/fluorescence; ≥ and ≤ were set here for values at or beyond the usual limits of such assays
[2] = molecular target: HLA-A*03:01; experiment: as above; settings: source organism: Vaccinia virus Copenhagen
[3] = molecular target: HLA-A*11:01; experiment: as above; settings: source organism: Vaccinia virus Copenhagen
[4] = molecular target: HLA-A*24:02; experiment: as above; settings: source organism: Vaccinia virus Copenhagen
[5] = molecular target: HLA-B*46:01; experiment: IEDB peptide-MHC binding, purified MHC/competitive/fluorescence; filed as Kd, often an IC50 or EC50 that approximates it; ≥ and ≤ were set here for values at or beyond the usual limits of such assays
[6] = molecular target: HLA-B*39:01; experiment: as above
[7] = molecular target: HLA-B*57:01; experiment: as above
[8] = molecular target: HLA-A*26:01; experiment: as above
[9] = molecular target: HLA-A*29:02; experiment: as above
[10] = molecular target: HLA-A*03:01; experiment: as above
[11] = molecular target: HLA-B*15:01; experiment: as above
[12] = molecular target: HLA-B*18:01; experiment: as above
[13] = molecular target: HLA-A*02:01; experiment: as above
[14] = molecular target: HLA-A*23:01; experiment: as above
[15] = molecular target: HLA-A*02:03; experiment: as above
[16] = molecular target: HLA-A*02:11; experiment: as above
[17] = molecular target: HLA-A*02:19; experiment: as above
[18] = molecular target: HLA-B*51:01; experiment: as above
[19] = molecular target: HLA-B*27:03; experiment: as above
[20] = molecular target: HLA-A*24:03; experiment: as above
[21] = molecular target: HLA-B*58:01; experiment: as above; settings: source organism: Yersinia pestis Nepal516
[22] = molecular target: HLA-B*35:01; experiment: as above
[23] = molecular target: HLA-A*01:01; experiment: as above
[24] = molecular target: HLA-B*15:17; experiment: as above
[25] = molecular target: HLA-A*30:01; experiment: as above; settings: source organism: Vaccinia virus WR
[26] = molecular target: HLA-A*32:01; experiment: IEDB peptide-MHC binding, purified MHC/competitive/radioactivity; filed as Kd, often an IC50 or EC50 that approximates it; ≥ and ≤ were set here for values at or beyond the usual limits of such assays; settings: source organism: Vaccinia virus WR
[27] = molecular target: HLA-B*58:01; experiment: IEDB peptide-MHC binding, purified MHC/direct/fluorescence; filed as Kd, often an IC50 or EC50 that approximates it; ≥ and ≤ were set here for values at or beyond the usual limits of such assays; settings: source organism: Variola virus
[28] = molecular target: HLA-B*40:01; experiment: as above; settings: source organism: Camelpox virus M-96
[29] = molecular target: HLA-A*26:01; experiment: as above; settings: source organism: Camelpox virus M-96
[30] = molecular target: HLA-A*11:01; experiment: as above; settings: source organism: Variola virus
[31] = molecular target: HLA-A*02:01; experiment: as above; settings: source organism: Camelpox virus M-96
[32] = molecular target: HLA-B*48:01; experiment: as above; settings: source organism: Camelpox virus M-96
[33] = molecular target: HLA-A*69:01; experiment: as above; settings: source organism: Camelpox virus M-96
[34] = molecular target: HLA-A*01:01; experiment: as above; settings: source organism: Camelpox virus M-96
[35] = molecular target: HLA-A*31:01; experiment: as above; settings: source organism: Camelpox virus M-96
[36] = molecular target: HLA-B*27:05; experiment: as above; settings: source organism: Camelpox virus M-96
[37] = molecular target: HLA-B*08:02; experiment: as above; settings: source organism: Variola virus
[38] = molecular target: HLA-C*06:02; experiment: as above; settings: source organism: Influenza A virus (A/81/HO)
[39] = molecular target: HLA-A*68:02; experiment: IEDB peptide-MHC binding, purified MHC/competitive/fluorescence; filed as Kd, often an IC50 or EC50 that approximates it; ≥ and ≤ were set here for values at or beyond the usual limits of such assays
[40] = molecular target: HLA-A*02:16; experiment: as above
[41] = molecular target: HLA-A*69:01; experiment: as above
[42] = molecular target: HLA-A*02:12; experiment: as above
[43] = source organism: Bacillus anthracis str. A0488
[44] = source organism: Yersinia pestis Nepal516
[45] = source organism: Vaccinia virus WR
[46] = source organism: Influenza A virus (A/81/HO)
[47] = source organism: Giardia lamblia ATCC 50803
[48] = source organism: Klebsiella pneumoniae subsp. pneumoniae NTUH-K2044

Sequence: ITFALKKLI
IC50 ([1]; source organism: Vaccinia virus Copenhagen): ≥ 210 µM
IC50 [2]: 60.8 µM
IC50 [3]: 57.7 µM
IC50 [4]: 2.3 µM

Sequence: KLWASFFQG
Kd [5, 43]: ≥ 20 µM
Kd [6, 43]: ≥ 20 µM
Kd [7, 43]: ≥ 20 µM
Kd [8, 43]: ≥ 20 µM
Kd [9, 43]: ≥ 20 µM
Kd [10, 43]: ≥ 20 µM
Kd [11, 43]: ≥ 20 µM
Kd [12, 43]: ≥ 20 µM
Kd [13, 43]: 0.104 µM
Kd [14, 43]: ≥ 20 µM
Kd [15, 43]: ≥ 20 µM
Kd [16, 43]: 0.0025 µM
Kd [17, 43]: ≥ 20 µM
Kd [18, 43]: ≥ 20 µM
Kd [19, 43]: ≥ 20 µM
Kd [20, 43]: ≥ 20 µM

Sequence: FTWSGDVRY
Kd [21]: 0.404 µM
Kd [22, 44]: ≤ 0.0001 µM
Kd [23, 44]: 0.132 µM

Sequence: ITMVNSLTY
Kd [22, 45]: 0.29 µM
Kd [7, 45]: 0.257 µM
Kd [10, 45]: 0.039 µM
Kd [11, 45]: 0.228 µM
Kd [24, 45]: 0.0041 µM
Kd [25]: ≥ 20 µM
Kd [26]: 0.0957 µM
Kd [27]: 0.013 µM
Kd [28]: ≥ 20 µM
Kd [29]: 0.258 µM
Kd [30]: 0.012 µM
Kd [31]: ≥ 20 µM
Kd [32]: ≥ 20 µM
Kd [33]: ≥ 20 µM
Kd [34]: 0.0371 µM
Kd [35]: ≥ 20 µM
Kd [36]: ≥ 20 µM
Kd [37]: ≥ 20 µM

Sequence: DIKASNIVL
IC50 [1, 45]: ≥ 266 µM

Sequence: SASLAALFY
Kd [22, 43]: 0.0002 µM
Kd [23, 43]: 0.0281 µM

Sequence: WMACNSAAF
Kd [5, 46]: 0.109 µM
Kd [22, 46]: 0.0002 µM
Kd [11, 46]: 0.0146 µM
Kd [38]: ≥ 20 µM

Sequence: TRVLKPSVI
IC50 [1, 45]: ≥ 187 µM

Sequence: VIMWYNYLF
Kd ([5]; source organism: Fowlpox virus): ≥ 20 µM
Kd ([6]; source organism: Fowlpox virus): ≥ 20 µM
Kd ([7]; source organism: Fowlpox virus): ≥ 20 µM
Kd ([8]; source organism: Fowlpox virus): ≥ 20 µM
Kd ([9]; source organism: Fowlpox virus): ≥ 20 µM
Kd ([39]; source organism: Fowlpox virus): ≥ 20 µM
Kd ([10]; source organism: Fowlpox virus): ≥ 20 µM
Kd ([11]; source organism: Fowlpox virus): ≥ 20 µM
Kd ([24]; source organism: Fowlpox virus): ≥ 20 µM
Kd ([12]; source organism: Fowlpox virus): ≥ 20 µM
Kd ([13]; source organism: Fowlpox virus): ≥ 20 µM
Kd ([14]; source organism: Fowlpox virus): ≥ 20 µM
Kd ([15]; source organism: Fowlpox virus): ≥ 20 µM
Kd ([16]; source organism: Fowlpox virus): 0.0047 µM
Kd ([40]; source organism: Fowlpox virus): ≥ 20 µM
Kd ([41]; source organism: Fowlpox virus): ≥ 20 µM
Kd ([17]; source organism: Fowlpox virus): ≥ 20 µM
Kd ([42]; source organism: Fowlpox virus): ≥ 20 µM
Kd ([19]; source organism: Fowlpox virus): ≥ 20 µM
Kd ([20]; source organism: Fowlpox virus): ≥ 20 µM

Sequence: TEDDWITYI
Kd [5, 47]: ≥ 20 µM
Kd [6, 47]: ≥ 20 µM
Kd [7, 47]: ≥ 20 µM
Kd [8, 47]: ≥ 20 µM
Kd [9, 47]: ≥ 20 µM
Kd [39, 47]: ≥ 20 µM
Kd [10, 47]: ≥ 20 µM
Kd [11, 47]: ≥ 20 µM
Kd [24, 47]: ≥ 20 µM
Kd [12, 47]: ≥ 20 µM
Kd [13, 47]: ≥ 20 µM
Kd [14, 47]: ≥ 20 µM
Kd [15, 47]: ≥ 20 µM
Kd [16, 47]: ≥ 20 µM
Kd [40, 47]: 0.402 µM
Kd [41, 47]: ≥ 20 µM
Kd [17, 47]: ≥ 20 µM
Kd [42, 47]: ≥ 20 µM
Kd [18, 47]: ≥ 20 µM
Kd [19, 47]: ≥ 20 µM
Kd [20, 47]: ≥ 20 µM

Sequence: FTIRDVLAY
Kd [21]: 0.0041 µM
Kd [22, 44]: 0.0013 µM
Kd [10, 44]: ≥ 20 µM
Kd [23, 44]: 0.0025 µM

Kd [22, 48]: 0.0267 µM
Kd [10, 48]: 0.429 µM
Sequence: KVLSHGWAY

Sequence: NAMGADYYA
Kd [5, 47]: ≥ 20 µM
Kd [6, 47]: ≥ 20 µM
Kd [7, 47]: ≥ 20 µM
Kd [8, 47]: ≥ 20 µM
Kd [9, 47]: 0.869 µM
Kd [10, 47]: ≥ 20 µM
Kd [11, 47]: ≥ 20 µM
Kd [24, 47]: ≥ 20 µM
Kd [12, 47]: ≥ 20 µM
Kd [13, 47]: ≥ 20 µM
Kd [14, 47]: ≥ 20 µM
Kd [15, 47]: ≥ 20 µM
Kd [40, 47]: ≥ 20 µM
Kd [17, 47]: 0.0151 µM
Kd [18, 47]: ≥ 20 µM
Kd [19, 47]: ≥ 20 µM
Kd [20, 47]: ≥ 20 µM
